Reference: the supplement of paper PMC7877785
± gives the uncertainty stated by the source.

Experiment: self-splicing fitness, log relative to wild type (ln ratio); higher = more splicing; Tetrahymena group I intron in knt gene, E. coli kanamycin selection, DiMSum; sequences stand for … in CUCUCU…GGAGGGAAAAGUUAUCAGGCAUGCACCUGGUAGCUAGUCUUUAAACCAAUAGAUUGCAUCGGUUUAAAAGGCAAGACCGUCAAAUUGCGGGAAAGGGGUCAACAGCCGUUCAGUACCAAGUCUCAGGGGAAACUUUGAGAUGGCCUUGCAAAGGGUAUGGUAAUAAGCUGACGGACAUGGUCCUAACCACGCAGCCAAGUCCUAAGUCAACAGAUCUUCUGUUGAUAUGGAUGCAGUUCACAGACUAAAUGUCGGUCGGGGAAGAUGUAUUCUUCUCAUAAGAUAUAGUCGGACCUCUCCUUAAUGGGAGCUAGCGGAUGAAGUGAUGCAACACUGGAGCCGCUGGGAACUAAUUUGUAUGCGAAAGUAUAUUGAUUAGUUUUGGAGUACUCGUGGUCG
Method in brief: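 Pooled colonies went to amplicon sequencing on an Illumina HiSeq 2500 after six replicate transformations. The plates were LB agar with 100 μg/mL carbenicillin, 50 μM IPTG and 0.2% rhamnose, with or without 25 μg/mL kanamycin, incubated overnight at 37°C or 30°C. The E. coli BL21(DE3) library had all eight P1ex-region intron nucleotides randomised, the intron placed in the knt kanamycin-resistance gene on pET-22b(+). DiMSum fitness is the error-weighted combination of replicate fold changes, kanamycin against none, normalised to wild type.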

Row | Sequence | self-splicing fitness (ln) (30 °C) | self-splicing fitness (ln) (37 °C)
1 | UACCAGCAAUAUUACGGAAG | -3.5 ± 0.24 | -1.57 ± 0.16
2 | CAUUAGCAAUAUUACGAUCC |  | 0.538 ± 0.22
3 | GGCGAGCAAUAUUACGUAAG | -3.88 ± 0.38 | -1.39 ± 0.27
4 | AGGCAGCAAUAUUACGAAUA | -2.67 ± 0.25 | -2.08 ± 0.22
5 | GCCUAGCAAUAUUACGUUAU | -1.52 ± 0.12 | -0.39 ± 0.14
6 | UUCAAGCAAUAUUACGGAAU |  | -2.57 ± 0.23
7 | GUUCAGCAAUAUUACGGGAU | -2.24 ± 0.18 | -1.58 ± 0.35
8 | AGUCAGCAAUAUUACGGCUA | -0.605 ± 0.14 | -0.512 ± 0.13
9 | UACUAGCAAUAUUACGAUGA | -0.469 ± 0.13 | -0.321 ± 0.11
10 | UCCCAGCAAUAUUACGGUGG | -3.65 ± 0.15 | -2.5 ± 0.15
11 | ACCAAGCAAUAUUACGUUCC | -3.95 ± 0.16 | -1.37 ± 0.12
12 | UCGGAGCAAUAUUACGGGAA |  | -2.08 ± 0.4
13 | ACUCAGCAAUAUUACGUAGA | -1.41 ± 0.066 | -0.457 ± 0.092
14 | AAAUAGCAAUAUUACGGUUG | -1.88 ± 0.094 | -1.33 ± 0.12
15 | UAUGAGCAAUAUUACGGCAG | -1.5 ± 0.25 | -0.674 ± 0.27
16 | UACAAGCAAUAUUACGACUA | -0.188 ± 0.062 | 0.316 ± 0.083
17 | CCUCAGCAAUAUUACGGCUU | -1.94 ± 0.16 | -2.28 ± 0.21
18 | UCGGAGCAAUAUUACGAAGU |  | -0.529 ± 0.24
19 | GCCUAGCAAUAUUACGUGAC | -1.12 ± 0.17 | 0.101 ± 0.17
20 | UACGAGCAAUAUUACGGGGC |  | -3.34 ± 0.3
21 | AUACAGCAAUAUUACGCAAU | -1.93 ± 0.15 | -1.02 ± 0.16
22 | CCAUAGCAAUAUUACGUACC | -3.95 ± 0.47 | -2.21 ± 0.36
23 | CGCGAGCAAUAUUACGGAAG | -1.78 ± 0.17 | -2.32 ± 0.2
24 | CAUAAGCAAUAUUACGUCAG | -1.26 ± 0.13 | 0.389 ± 0.15
25 | CUUGAGCAAUAUUACGAGGC | -2.91 ± 0.26 | -2.89 ± 0.27

Row | Sequence | self-splicing fitness (ln) (30 °C) | self-splicing fitness (ln) (37 °C)
26 | CCGCAGCAAUAUUACGUUUA | -3.22 ± 0.18 | -2.35 ± 0.14
27 | GGCAAGCAAUAUUACGUCUA | -0.593 ± 0.084 | 0.16 ± 0.085
28 | AGUCAGCAAUAUUACGCGUC | -2.65 ± 0.23 | -0.977 ± 0.23
29 | AACCAGCAAUAUUACGCGAG | -1.21 ± 0.063 | -0.492 ± 0.072
30 | CCUGAGCAAUAUUACGCCCA | -3.82 ± 0.47 | -2.05 ± 0.34
31 | AUCUAGCAAUAUUACGUCAU | -1.41 ± 0.11 | -0.955 ± 0.12
32 | CCAUAGCAAUAUUACGAUCU | -3.15 ± 0.34 | -2.96 ± 0.44
33 | GUAAAGCAAUAUUACGUCAU | -0.555 ± 0.095 | -0.359 ± 0.096
34 | CACCAGCAAUAUUACGUUAA | -3.35 ± 0.095 | -2.37 ± 0.11
35 | GUAUAGCAAUAUUACGCCUG | -2.67 ± 0.11 | -0.647 ± 0.1
36 | GUGUAGCAAUAUUACGUGCA | -2.55 ± 0.21 | -1.11 ± 0.26
37 | GAGAAGCAAUAUUACGGUUC | -2.91 ± 0.13 | -1.5 ± 0.13
38 | CCAAAGCAAUAUUACGAUUU | -3.85 ± 0.2 | -1.98 ± 0.19
39 | GGACAGCAAUAUUACGUGCC | -3.78 ± 0.19 | -2.02 ± 0.21
40 | UGCCAGCAAUAUUACGGUCC | -0.84 ± 0.2 | 0.136 ± 0.2
41 | GUCAAGCAAUAUUACGAGGC | -3.94 ± 0.24 | -2.83 ± 0.18
42 | CUUCAGCAAUAUUACGUAUU | -3.18 ± 0.17 | -2.37 ± 0.2
43 | CUCCAGCAAUAUUACGACAU | -4.008 ± 0.026 | -2.95 ± 0.039
44 | CUAGAGCAAUAUUACGAGAA | -2.62 ± 0.35 | -2.5 ± 0.45
45 | AACGAGCAAUAUUACGUGUU |  | -3.62 ± 0.34
46 | UUAUAGCAAUAUUACGUCUU | -3.35 ± 0.3 | -0.948 ± 0.17
47 | GGGUAGCAAUAUUACGCCGG | -4.18 ± 0.39 | -2.03 ± 0.24
48 | CUUUAGCAAUAUUACGUAAG | -0.953 ± 0.081 | -0.626 ± 0.11
49 | CGGAAGCAAUAUUACGUAGA | -3.45 ± 0.2 | -1.82 ± 0.19
50 | AAUCAGCAAUAUUACGCGGG | -1.33 ± 0.095 | -1.42 ± 0.099

Row | Sequence | self-splicing fitness (ln) (30 °C) | self-splicing fitness (ln) (37 °C)
51 | UCCAAGCAAUAUUACGUGCG | -3.59 ± 0.15 | -1.68 ± 0.13
52 | CCAGAGCAAUAUUACGCAAU | -2.14 ± 0.2 | -2.05 ± 0.31
53 | AUGAAGCAAUAUUACGUCGC | -2.24 ± 0.14 | -1.28 ± 0.18
54 | UGACAGCAAUAUUACGCACU | 0.279 ± 0.051 | -0.101 ± 0.059
55 | AAGUAGCAAUAUUACGCGGC |  | 0.207 ± 0.41
56 | GCGCAGCAAUAUUACGGCAU | -0.756 ± 0.075 | 0.684 ± 0.11
57 | UGAGAGCAAUAUUACGAACU | -3.05 ± 0.43 | -2.02 ± 0.24
58 | UUUGAGCAAUAUUACGCUAG | -2.68 ± 0.37 | -1.33 ± 0.23
59 | UAUGAGCAAUAUUACGGGAA |  | -2.7 ± 0.41
60 | UCAGAGCAAUAUUACGACGG | -0.865 ± 0.14 | 0.304 ± 0.18
61 | CCUGAGCAAUAUUACGAGGU | -2.72 ± 0.17 | -1.99 ± 0.15
62 | CUCGAGCAAUAUUACGAGAG | -1.71 ± 0.28 | 
63 | ACACAGCAAUAUUACGCACC | -0.476 ± 0.09 | -0.151 ± 0.11
64 | ACGCAGCAAUAUUACGGAAU | -2.27 ± 0.1 | -2.07 ± 0.14
65 | UUUUAGCAAUAUUACGCUUU | -3.71 ± 0.28 | -1.23 ± 0.16
66 | CGUCAGCAAUAUUACGCCGU | -2.49 ± 0.12 | 0.143 ± 0.11
67 | UGUGAGCAAUAUUACGCGCC | -2.07 ± 0.17 | -1.9 ± 0.38
68 | UAAGAGCAAUAUUACGCUAA |  | -1.77 ± 0.27
69 | GCACAGCAAUAUUACGUCCA | -0.954 ± 0.12 | -0.96 ± 0.11
70 | UCACAGCAAUAUUACGGGAU | -3.45 ± 0.23 | -2.36 ± 0.24
71 | UCGAAGCAAUAUUACGGUGU | -2.05 ± 0.094 | -1.62 ± 0.15
72 | AAGGAGCAAUAUUACGGGAG | -4.8 ± 0.39 | -2.24 ± 0.3
73 | CCUUAGCAAUAUUACGGACU | -2.41 ± 0.19 | -2.89 ± 0.43
74 | CGAGAGCAAUAUUACGGGCA | -3.47 ± 0.28 | -2.53 ± 0.44
75 | AACGAGCAAUAUUACGUGUG | -3.18 ± 0.13 | -2.57 ± 0.14

Row | Sequence | self-splicing fitness (ln) (30 °C) | self-splicing fitness (ln) (37 °C)
76 | GUUGAGCAAUAUUACGAACG |  | -1.12 ± 0.35
77 | ACUCAGCAAUAUUACGCAGU | -3.55 ± 0.16 | -2.28 ± 0.17
78 | CUGCAGCAAUAUUACGAUUC |  | -2.05 ± 0.2
79 | AGUAAGCAAUAUUACGCGUG | -3.44 ± 0.2 | -1.46 ± 0.16
80 | GCUGAGCAAUAUUACGUCAC | -2.4 ± 0.37 | -1.66 ± 0.36
81 | UAGGAGCAAUAUUACGGAUA | -2.09 ± 0.29 | -1.46 ± 0.23
82 | GUUUAGCAAUAUUACGCUCU | -0.694 ± 0.091 | -0.764 ± 0.11
83 | UUCGAGCAAUAUUACGAGGU | -2.94 ± 0.48 | -1.52 ± 0.43
84 | AUUCAGCAAUAUUACGAGAC |  | -0.937 ± 0.18
85 | UGGAAGCAAUAUUACGAGUA | -1.94 ± 0.22 | -1.13 ± 0.17
86 | CAUAAGCAAUAUUACGUACG | -0.507 ± 0.053 | 0.239 ± 0.074
87 | CUGCAGCAAUAUUACGCCGG | -2.55 ± 0.19 | -1.56 ± 0.29
88 | AGGUAGCAAUAUUACGGGCA | -0.941 ± 0.017 | -0.414 ± 0.034
89 | UCUGAGCAAUAUUACGCCAC | -2.41 ± 0.49 | 
90 | CUGCAGCAAUAUUACGCCAA |  | -1.67 ± 0.18
91 | UGUCAGCAAUAUUACGGCAU | -3.01 ± 0.15 | -2.48 ± 0.23
92 | CGCAAGCAAUAUUACGUUUA | -2.8 ± 0.12 | -1.98 ± 0.095
93 | AAGGAGCAAUAUUACGGUCU | -2.3 ± 0.15 | -0.298 ± 0.12
94 | CGGAAGCAAUAUUACGUAGU | -3.43 ± 0.14 | -1.97 ± 0.13
95 | CGAAAGCAAUAUUACGCUGU | -3.2 ± 0.25 | -2.75 ± 0.33
96 | CUUCAGCAAUAUUACGUUCU | -4.03 ± 0.33 | -2.26 ± 0.2
97 | GGUGAGCAAUAUUACGUCCU | -0.834 ± 0.23 | -1.45 ± 0.22
98 | UUGUAGCAAUAUUACGUUCU | -2.42 ± 0.15 | -1.69 ± 0.2
99 | CCACAGCAAUAUUACGUGUU | -3.75 ± 0.1 | -3.15 ± 0.14
100 | GAAGAGCAAUAUUACGCUGC |  | -2.63 ± 0.48
